In assay [1] the target is T1, human Complement Factor D (CFD), purified from human serum (human, UniProt P00746 26-253).
T1 construct: serum purified (CompTech A136); also called serum purified CFD; hCFD-Comptech
The assay can be described thus: SPR MX96, mAbs amine-coupled, CFD injected.

The target in assay [2] is T2, recombinant cynomolgus CFD, His-tagged (cynomolgus).
T2 construct: also called rcyCFD-His; recombinant Cyno-CFD
Nature of the assay: SPR MX96.

For assay [3], the target named is T3, human complement factor D purified from serum (human, UniProt P00746 26-253).
T3 construct: serum-purified (CompTech); also called hCFD-Comptech; CFD
The assay can be described thus: SPR MX96.

Assay [4] concerns the target T4, recombinant human CFD mutant 1 (R157A, R207A), His-tagged (human, UniProt P00746 26-253).
T4 construct: positions are linear positions in the mature protein; also called rhCFD-mut1-His; Mut1
The assay can be described thus: SPR MX96.

The target in assay [5] is T5, recombinant human CFD, His-tagged (human, UniProt P00746 26-253).
T5 construct: also called rhCFD-His
The assay can be described thus: SPR MX96.

Substitutions are numbered along the chain they refer to.

T4 sequence (P00746 26-253 R182A/R232A limits assumed): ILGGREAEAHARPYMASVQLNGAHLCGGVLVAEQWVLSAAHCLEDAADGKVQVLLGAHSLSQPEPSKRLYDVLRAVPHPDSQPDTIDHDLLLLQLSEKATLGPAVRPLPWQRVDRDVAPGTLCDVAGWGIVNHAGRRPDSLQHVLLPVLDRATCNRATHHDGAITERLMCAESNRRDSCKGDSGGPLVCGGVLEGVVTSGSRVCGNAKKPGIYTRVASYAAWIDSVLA
T5 sequence (P00746 26-253 limits assumed): as the sequence (P00746 26-253 R182A/R232A limits assumed) above, with A157R, A207R counted along it
T1 sequence (P00746 26-253): as the sequence (P00746 26-253 R182A/R232A limits assumed) above, with A157R, A207R counted along it
T3 sequence (P00746 26-253): as the sequence (P00746 26-253 R182A/R232A limits assumed) above, with A157R, A207R counted along it

B1: KCD212 (antibody, V domains shown)
VH: EVHLVESGGDLVKPGGSLKLSCAASGFTFSRYGMSWVRQTPDKRLEWVATISSAGSYTYYPDSVKGRFTISRDNAKNTLFLQMSSLKSEDTAMYYCARPLNYYGTSSFDYWGQGTTLTVSS
VL: QIVLTQSPAIMSASPGEKVTMTCRASSSVSSTYLHWYQQKPGSSPKLWIYSTSNLASGVPPRFSGSGSGTSYSLTISSVEAEDAATYYCQQYDSSPNTFGAGTKLELK
Turning to B1, the affinity in assay [1], expressed as Kd, was 0.469 nM.

B2: KCD225 (antibody, V domains shown)
VH: QVQLQQSGPELVKPGASVKISCKASGYTFTDYYINWMKQRPGQGLEWIGWIFPGSDSTYYNEKFKGKATLTVDKSSSTAYMLLSSLTSEDSAVYFCARLGYYSHSYYAMDYWGQGTSVTVSS
VL: DIQMTQSPASLSVSTGETVTITCRASENIYSNLAWFQQKQGKSPQLLVYAATNLADGVPSRFSGSGSGTQYSLKITSLQSEDFGSYYCQHFWGTPLTFGAGTKLDLK
With B2, the Kd (usually the constant that tells how readily two partners part at equilibrium) in assay [1] was 8.67 nM.

B3: KCD066 (antibody, V domains shown)
VH: QVQLQQSAAELARPGASVKMSCKASGYTFTDYTMHWVKQRPGQGLEWIGYINPSGGYTDYNQKFKDKTALTADKSSSTAYMQLSSLTSEDSAVYYCARRRDYWFAYWGQGTLVTVSA
VL: DIVMSQSPSSLAVSVGEKVTMSCKSSQSLLYSGNQKNYLAWYQQKPGQSPKLLIYWASTRESGVPDRFTGSGSGTDFTLTISSVKAEDLAVYYCHQYYSYLTFGAGTKLELK
B3 gave a Kd in assay [1] of 2.88 nM.

B4: KCD077 (antibody, V domains shown)
VH: EVQLQQSGAELVRPGALVKLSCKASGFNIKDYYMHWVKQRPEQGLEWIGWIDPENGHTIYDPRFQGKATITADTSSNTAYLQLSSLTSEDTAVYYCSRGLLGFAYWGQGTLVTVSA
VL: DIVMTQSQKFMSTSVGDRVSVTCKASQNVGTNVAWYQQKPGQSPKALIYTASYRYSGVPDRFTGSGSGTDFTLTISNVQSEDLAEYFCQQYNSYPHMYTFGGGTKLEIK
Take B4: the Kd in assay [2] amounted to 14 nM; in assay [3], 17 nM; in assay [4] it was 13 nM.

B5: KCD224 (antibody, V domains shown)
VH: QVQLKESGPGLVAPSQSLSITCTVSGFSLTSYGVDWIRQSPGKGLEWLGVIWGVGSTNYNSALKSRLSISKDNSKSQVFLKMNSLQTDDTAMYYCARSYDGSYWYFDVWGTGTTVTVSS
VL: DIQMTQTTSSLSASLGDRVTISCRASQVISNYLNWYQQKPDGTVKLLIYYTSRLHSGVPSRFSGSGSGTDYSLTISNLEPEDIATYYCQQYSKLPYTFGSGTKLEIK
B5 displayed a Kd in assay [1] of 1.17 nM.

B6: KCD075 (antibody, V domains shown)
VH: QVQLLQPGAELVRPGTSVKLSCKASGYTFSNYWINWVKQRPGQGLEWIGNIYPSDSSINYNQKFKDKATLTVDKSSTTAYMQLSSPTSEDSAVYYCTGTDWYFDVWGAGTTVTVSS
VL: B5 VL with R24S, A25G, S26G, V28G, V44F, R53T, I83V, S100G
For the molecule B6, binding in assay [1] was put at a Kd of 3.75 nM.

B7: KCD014 (antibody, V domains shown)
VH: EVKLVESGGGLVQPGGSLKLSCAASGFTFSSYIMSWVRQTPEKRLEWVAYITNGGGNTYYPDTIKGRFTISRDNAKNTLYLQMSSLKSEDTAMYYCARHGTGYAMDYWGQGTSVTVSS
VL: EIVLTQSPTTMAASPGEKITITCSASSSISSNYLHWYQQKPGFSPKLLIYRTSNLASGVPARFSGSGSGTSYSLTIGTMEAEDVATYYCQQGSSIPLTFGAGTKLELK
Consider B7, for which the dissociation constant (Kd) in assay [5] amounted to 20 nM; in assay [3], 22 nM.

B8: KCD110 (antibody, V domains shown)
VH: EVQLQQSGPELVKPGASVKISCKASGYSFTGYYMHWVKQSHGNILDWIGYIDPDNGVSSKNQKFTGKATVTADKSSSTAYMELRSLTSEDSAVYYCAGYYGSSWYWYFDVWGTGTTVTVSS
VL: QIVLSQSPAILSASPGEKVTMTCRASSSVSYMHWYQQKPGSSPKPWIYATSNLASGVPARFSGSGSGTSYSLTISRVEAEDAATYYCQQWSSNPYTFGGGTKLEIK
B8: the Kd in assay [1] came out at 3.71 nM.

B9: KCD011 (antibody, V domains shown)
VH: EVKLVESGGGLVQPGGSLKLSCAASGFTFSSNTMSWVRQTPEKRLEWVAYITNGGGSTYYPDTVKGRFTISRDNARNTLYLQMSSLKSEDTAMYYCARHDYYTMDYWGQGTSVTVSS
VL: DIQMTQSPSSLSASLGGKVTITCKASQDINKYIAWYQHKPGKGPRLLIHYTSTLQPGIPSRFSGSGSGRDYSFSISNLEPEDIATYYCLQYDNLLYTFGGGTKLEIK
B9: the dissociation constant Kd was determined as 59 nM in assay [5], 38 nM in assay [2], 77 nM in assay [3] and 110 nM in assay [4].

B10: KCD058 (antibody, V domains shown)
VH: EVKLVESGGDLVQPGGSLKLSCAASGFTFSRYIMSWVRLTPEKRLEWVAFITNGGGNTYHPDTVKGRFTISRDNANNTLYLQMSSLKSEDTAIYYCARHDYYALDYWGQGTSVTVSS
VL: B9 VL
Take B10: the Kd is 9.4 nM in assay [5], 11 nM in assay [2], 9.9 nM in assay [3] and 7.6 nM in assay [4].

B11: KCD057 (antibody, V domains shown)
VH: B10 VH with D10G, R31N, L39Q, F50Y, N57A, H60Y, R67Q, N76K, Y101F, Y106F
VL: B9 VL with Q90K
Consider B11, for which the Kd in assay [5] was 2.7 nM; in assay [2], 3.1 nM; in assay [3], 2.7 nM; in assay [4], 2.5 nM.

B12: KCD056 (antibody, V domains shown)
VH: B9 VH with L20V, S31T, N32Y, V64E, R76K, A97V, T103A
VL: B9 VL with K103T
In the case of B12, the Kd in assay [5] came out at 52 nM; in assay [2], 31 nM; in assay [3] it was 60 nM; in assay [4] it was 84 nM.

B13: KCD063 (antibody, V domains shown)
VH: B7 VH with T28I, N57S, I64V, F68L, A97V, G100A, T101H, G102Y
VL: B9 VL with A34T
Turning to B13, the equilibrium dissociation constant (Kd) in assay [2] amounted to 24 nM; in assay [3] it was 33 nM.

B14: KCD210 (antibody, V domains shown)
VH: EVQLQQSGPVLVKPGASVTMSCKASGYTFTEYYMNWVKQSHGKSLDWIGVINPYSGGTSYKQKFKDKATLTVDKSSSTAYMELNGLTSEDSAVYFCVRGGLRRNYFDYWGQGTTLTVSS
VL: EIVLTQSPALMTASPGEKVTITCSVSSSISSTNLHWYQQKSGTSPKPWIFGTSNLASGVPVRFSGSGSGTSYSLTISNMEAEDAATYYCQQWNSYPFTFGTGTKLEIK
In the case of B14, in assay [1], binding was characterised by a dissociation constant (Kd) of 3.52 nM.

B15: KCD133 (antibody, V domains shown)
VH: EVQLVESGGGLLQPKGSLKLSCAASGFTFNTYAMNWVRQAPGKGLEWVARIRSKSSNYATYYADSVKDRFTISRDDSQSMFYLEMNNLKTEDTAMYYCVRDRGYYYVMDYWGQGTSVTVSS
VL: DIVLTQSPASLAVSLGQRATISCRASESVEYYGTSLMQWYQQKPGQPPKLLINAASNVESGVPARFSGSGSGTDFSLNIHPVEEDDIAMYFCQQSRKVPWTFGGGTKLEIK
On to B15, for which the figures for the Kd in assay [5], in assay [2] and in assay [3] were 14 nM, 84 nM and 12 nM, respectively.

B16: KCD019 (antibody, V domains shown)
VH: QVQLQQSGAELARPGASVKMSCKASGYTFATYTIHWVKQRPGQGLEWIGYLNLRNDYTHYNQKFRDKAALTADKSSSTAYMQLSSLTSEDSAVYNCAFRLGNDRQGWYFDVWGAGTTVTVSS
VL: DIVMTQAHRFMSTSVGDRVIISCKASQDVGTAVAWYQQTPGQSPKILIYWTSTRHTGVPDRFTGSRSGTDFTLTISNVQSEDLADYFCQQYTTYPLTFGGGTKLEIK
In the case of B16, the Kd was 61 nM in assay [5], 47 nM in assay [2], 7.2 nM in assay [3] and 180 nM in assay [4].

B17: KCD131 (antibody, V domains shown)
VH: QVQLQQSGPELVKPGASVKISCKASAYTFTDYYINWVKQRPGQGPEWIGWIFPGSNSTYSNEKFEVKATLTVDESSSTAYMLLSSLTSEDSAVYFCARLGYFGSSYHALDYWGQGTSVTVSS
VL: DIQMTQSPASLSVSVGETVTITCRASENIYSHLAWFQQKQGKSPRLLVYSATNLPDGVPSRFSGSGSGTQYSLKINILQSEDFGSYYCQHFWGTPWTFGGGTKLEIK
Turning to B17, the dissociation constant Kd in assay [1] is 0.14 nM.

B18: KCD219 (antibody, V domains shown)
VH: B2 VH with M37V, D56G, T87P, L99Y, S103G, H104S, Y106F
VL: B2 VL with T15V, F36Y, T76N, T94S, L96P, A100G, D105E, L106I
For B18, the Kd in assay [1] turned out to be 4.3 nM.

B19: KCD030 (antibody, V domains shown)
VH: QVQLQQSGAELAKPGASVKMSCKASGYTFTNYWMHWVKQRPGQGLEWIGYINPSIGYTEYNQKFKDKATLTADKSSSTAYMQLSSLTSEDSAVFYCATFIYYAMDYWGQGTSVTVSS
VL: DIQMNQSPSSLSASLGDTITITCHASQNINVWLSWYQQKPGNIPKLLIYKASNLHTGVPSRFSGSGSGTGFTLTISSLQPEDIATYYCQQGQSYPYTFGGGTKLEIK
With B19, the figures for the Kd in assay [5], in assay [3] and in assay [4] were 3.8 nM, 4.2 nM and 1.3 nM, respectively.

B20: KCD136 (antibody, V domains shown)
VH: EVQLQQSVAELVRPGASVKLSCSASGFNIKNTYMHWVNQRPEQGLEWIGRIDPANGITKYAPNFQGKATITADTSSNTAYLQLSNLTSEDTAIYYCTRAMDYWGQGTSVTVSS
VL: QIVLTQSPAIMSASPGEKVTMTCSASSSVSYMYWYQQKPGSSPRLLIYDISNLASGVPVRFSGSGSGTSYSLTISRMEAEDAATYYCQQWDTYPWTFGGGTKLEIK
In assay [1], B20 gave a dissociation constant (Kd) of 4.46 nM.

For the origin of these results see patent publication US20180334496A1 (KODIAK SCIENCES, published 2018).
